Experimental data taken from patent US20230293638A1 (Eli Lilly, published 2023).
Numbered stars: 1 amine (or outer) side, 2 acyl side, 3 side chain; on linkers, the order of the positions; unused ones are H or OH. Square brackets hold non-standard residues; d marks the D form. Side chains are listed from the residue outwards. Ends that are not written are not given here. * marks the point of attachment. C20 diacid = O=C(O)CCCCCCCCCCCCCCCCCCC(=O)*; γGlu = O=C(O)[C@H](CCC(=O)[*:2])N[*:1]; AEEA = NCCOCCOCC(=O)O; Aib = CC(C)(N)C(=O)O

target: human GLP-1 receptor (human, UniProt P43220 24-463); assay: cell-based or functional assay

Row | Binder | hGLPIR cAMP EC50 ratio
1 | YXEGTXTSDLSIXLDXKAQXEFIXXLIEGGPSSGAPPPS (not fully specified; Aib2; αMeF(2F)6; αMeL13; Orn16; K17((2-[2-(2-Amino-ethoxy)-ethoxy]-acetyl)2-(γGlu)-CO-(CH2)16-CO2H); Aib20; D-Glu24; αMeY25; C-terminal NH2) [Peptide 238] | 1.15
2 | YXEGTXTSDXSIXLDXKAQXTFIXXLIEGGPSSGAPPPS (not fully specified; Aib2; αMeF(2F)6; 4Pal10; αMeL13; Orn16; K17((2-[2-(2-Amino-ethoxy)-ethoxy]-acetyl)2-(γGlu)-CO-(CH2)16-CO2H); Aib20; D-Glu24; αMeY25; C-terminal NH2) [Peptide 239] | 0.987
3 | YXEGTXTSDVSIXLDXKAQXTFIXXLIEGGPSSGAPPPS (not fully specified; Aib2; αMeF(2F)6; αMeL13; Orn16; K17((2-[2-(2-Amino-ethoxy)-ethoxy]-acetyl)2-(γGlu)-CO-(CH2)16-CO2H); Aib20; D-Glu24; αMeY25; C-terminal NH2) [Peptide 241] | 1.89
4 | YXEGTXTSDVSIXLDXKAQXAFIXXLIEGGPSSGAPPPS (not fully specified; Aib2; αMeF(2F)6; αMeL13; Orn16; K17((2-[2-(2-Amino-ethoxy)-ethoxy]-acetyl)2-(γGlu)-CO-(CH2)16-CO2H); Aib20; D-Glu24; αMeY25; C-terminal NH2) [Peptide 242] | 1.96
5 | YXEGTXTSDLSIXLDXKAQXTFIXXLIEGGPSSGAPPPS (not fully specified; Aib2; αMeF(2F)6; αMeL13; Orn16; K17((2-[2-(2-Amino-ethoxy)-ethoxy]-acetyl)2-(γGlu)-CO-(CH2)16-CO2H); Aib20; D-Glu24; αMeY25; C-terminal NH2) [Peptide 243] | 1.22
6 | YXEGTXTSDLSIXLDXKAQXAFIXXLIEGGPSSGAPPPS (not fully specified; Aib2; αMeF(2F)6; αMeL13; Orn16; K17((2-[2-(2-Amino-ethoxy)-ethoxy]-acetyl)2-(γGlu)-CO-(CH2)16-CO2H); Aib20; D-Glu24; αMeY25; C-terminal NH2) [Peptide 244] | 1.29
7 | YXEGTXTSDASIXLDXKAQXAFIXXLIEGGPSSGAPPPS (not fully specified; Aib2; αMeF(2F)6; αMeL13; Orn16; K17((2-[2-(2-Amino-ethoxy)-ethoxy]-acetyl)2-(γGlu)-CO-(CH2)16-CO2H); Aib20; D-Glu24; αMeY25; C-terminal NH2) [Peptide 246] | 2.56
8 | Y[Aib]EGTFTSDYSILLDKIAK([AEEA-AEEA-γGlu-C20 diacid])[Aib]AFIEYLIEGGPSSGAPPPS-NH2 (N-terminus assumed; SMILES CC[C@H](C)[C@H](NC(=O)[C@H](CCCCN)NC(=O)[C@H](CC(=O)O)NC(=O)[C@H](CC(C)C)NC(=O)[C@H](CC(C)C)NC(=O)[C@@H](NC(=O)[C@H](CO)NC(=O)[C@H](Cc1ccc(O)cc1)NC(=O)[C@H](CC(=O)O)NC(=O)[C@H](CO)NC(=O)[C@@H](NC(=O)[C@H](Cc1ccccc1)NC(=O)[C@@H](NC(=O)CNC(=O)[C@H](CCC(=O)O)NC(=O)C(C)(C)NC(=O)[C@@H](N)Cc1ccc(O)cc1)[C@@H](C)O)[C@@H](C)O)[C@@H](C)CC)C(=O)N[C@@H](C)C(=O)N[C@@H](CCCCNC(=O)COCCOCCNC(=O)COCCOCCNC(=O)CC[C@H](NC(=O)CCCCCCCCCCCCCCCCCCC(=O)O)C(=O)O)C(=O)NC(C)(C)C(=O)N[C@@H](C)C(=O)N[C@@H](Cc1ccccc1)C(=O)N[C@H](C(=O)N[C@@H](CCC(=O)O)C(=O)N[C@@H](Cc1ccc(O)cc1)C(=O)N[C@@H](CC(C)C)C(=O)N[C@H](C(=O)N[C@@H](CCC(=O)O)C(=O)NCC(=O)NCC(=O)N1CCC[C@H]1C(=O)N[C@@H](CO)C(=O)N[C@@H](CO)C(=O)NCC(=O)N[C@@H](C)C(=O)N1CCC[C@H]1C(=O)N1CCC[C@H]1C(=O)N1CCC[C@H]1C(=O)N[C@@H](CO)C(N)=O)[C@@H](C)CC)[C@@H](C)CC) [Peptide 31] | 0.0708
9 | YXEGTXTSDYSIXLDXKAQXEFIXYLIEGGPSSGAPPPS (not fully specified; Aib2; αMeF(2F)6; Aib13; Orn16; K17((2-[2-(2-Amino-ethoxy)-ethoxy]-acetyl)2-(γGlu)-CO-(CH2)16-CO2H); Aib20; D-Glu24; C-terminal NH2) [Peptide 247] | 0.614
10 | YXEGTXTSDYSILLDXKAQXEFIXYLIEGGPSSGAPPPS (not fully specified; Aib2; αMeF(2F)6; Orn16; K17((2-[2-(2-Amino-ethoxy)-ethoxy]-acetyl)2-(γGlu)-CO-(CH2)16-CO2H); Aib20; D-Glu24; C-terminal NH2) [Peptide 248] | 0.8
11 | YXEGTXTSDYSIXLDXKAQXEFIXYLIEGGPSSGAPPPS (not fully specified; Aib2; αMeF(2F)6; Nle13; Orn16; K17((2-[2-(2-Amino-ethoxy)-ethoxy]-acetyl)2-(γGlu)-CO-(CH2)16-CO2H); Aib20; D-Glu24; C-terminal NH2) [Peptide 249] | 0.778
12 | YXEGTXTSDYSIXLDXKAQXEFIXYLIEGGPSSGAPPPS (Aib2; αMeF(2F)6; Aib13; Orn16; K17((2-[2-(2-Amino-ethoxy)-ethoxy]-acetyl)2-(γGlu)-CO-(CH2)18-CO2H); Aib20; D-Glu24; C-terminal NH2) [Peptide 250] | 0.985
13 | YXEGTXTSDXSIXLDXKAQXAFIXXLIEGGPSSGAPPPS (Aib2; αMeF(2F)6; 4Pal10; αMeL13; Orn16; K17((2-[2-(2-Amino-ethoxy)-ethoxy]-acetyl)2-(εK)-CO-(CH2)18-CO2H); Aib20; D-Glu24; αMeY25; C-terminal NH2) [Peptide 251] | 1.37
14 | YXEGTXTSDXSIXLDXKAQXEFIXXLIEGGPSSG (Aib2; αMeF(2F)6; 4Pal10; αMeL13; Orn16; K17((2-[2-(2-Amino-ethoxy)-ethoxy]-acetyl)2-(γGlu)-CO-(CH2)16-CO2H); Aib20; D-Glu24; αMeY25; C-terminal NH2) [Peptide 264] | 3.19
15 | Y[Aib]EGTFTSDYSILLDKIAQ[Aib]K([AEEA-AEEA-γGlu-C20 diacid])FIEYLIEGGPSSGAPPPS-NH2 (N-terminus assumed; SMILES CC[C@H](C)[C@H](NC(=O)[C@H](CCCCN)NC(=O)[C@H](CC(=O)O)NC(=O)[C@H](CC(C)C)NC(=O)[C@H](CC(C)C)NC(=O)[C@@H](NC(=O)[C@H](CO)NC(=O)[C@H](Cc1ccc(O)cc1)NC(=O)[C@H](CC(=O)O)NC(=O)[C@H](CO)NC(=O)[C@@H](NC(=O)[C@H](Cc1ccccc1)NC(=O)[C@@H](NC(=O)CNC(=O)[C@H](CCC(=O)O)NC(=O)C(C)(C)NC(=O)[C@@H](N)Cc1ccc(O)cc1)[C@@H](C)O)[C@@H](C)O)[C@@H](C)CC)C(=O)N[C@@H](C)C(=O)N[C@@H](CCC(N)=O)C(=O)NC(C)(C)C(=O)N[C@@H](CCCCNC(=O)COCCOCCNC(=O)COCCOCCNC(=O)CC[C@H](NC(=O)CCCCCCCCCCCCCCCCCCC(=O)O)C(=O)O)C(=O)N[C@@H](Cc1ccccc1)C(=O)N[C@H](C(=O)N[C@@H](CCC(=O)O)C(=O)N[C@@H](Cc1ccc(O)cc1)C(=O)N[C@@H](CC(C)C)C(=O)N[C@H](C(=O)N[C@@H](CCC(=O)O)C(=O)NCC(=O)NCC(=O)N1CCC[C@H]1C(=O)N[C@@H](CO)C(=O)N[C@@H](CO)C(=O)NCC(=O)N[C@@H](C)C(=O)N1CCC[C@H]1C(=O)N1CCC[C@H]1C(=O)N1CCC[C@H]1C(=O)N[C@@H](CO)C(N)=O)[C@@H](C)CC)[C@@H](C)CC) [Peptide 32] | 0.136
16 | Y[Aib]EGTFTSDYSILLDKIAQ[Aib]AFK([AEEA-AEEA-γGlu-C20 diacid])EYLIEGGPSSGAPPPS-NH2 [Peptide 33] | 0.000256
17 | Y[Aib]EGTFTSDYSILLDKIAQ[Aib]AFIK([AEEA-AEEA-γGlu-C20 diacid])YLIEGGPSSGAPPPS-NH2 (N-terminus assumed; SMILES CC[C@H](C)[C@H](NC(=O)[C@H](CCCCN)NC(=O)[C@H](CC(=O)O)NC(=O)[C@H](CC(C)C)NC(=O)[C@H](CC(C)C)NC(=O)[C@@H](NC(=O)[C@H](CO)NC(=O)[C@H](Cc1ccc(O)cc1)NC(=O)[C@H](CC(=O)O)NC(=O)[C@H](CO)NC(=O)[C@@H](NC(=O)[C@H](Cc1ccccc1)NC(=O)[C@@H](NC(=O)CNC(=O)[C@H](CCC(=O)O)NC(=O)C(C)(C)NC(=O)[C@@H](N)Cc1ccc(O)cc1)[C@@H](C)O)[C@@H](C)O)[C@@H](C)CC)C(=O)N[C@@H](C)C(=O)N[C@@H](CCC(N)=O)C(=O)NC(C)(C)C(=O)N[C@@H](C)C(=O)N[C@@H](Cc1ccccc1)C(=O)N[C@H](C(=O)N[C@@H](CCCCNC(=O)COCCOCCNC(=O)COCCOCCNC(=O)CC[C@H](NC(=O)CCCCCCCCCCCCCCCCCCC(=O)O)C(=O)O)C(=O)N[C@@H](Cc1ccc(O)cc1)C(=O)N[C@@H](CC(C)C)C(=O)N[C@H](C(=O)N[C@@H](CCC(=O)O)C(=O)NCC(=O)NCC(=O)N1CCC[C@H]1C(=O)N[C@@H](CO)C(=O)N[C@@H](CO)C(=O)NCC(=O)N[C@@H](C)C(=O)N1CCC[C@H]1C(=O)N1CCC[C@H]1C(=O)N1CCC[C@H]1C(=O)N[C@@H](CO)C(N)=O)[C@@H](C)CC)[C@@H](C)CC) [Peptide 34] | 0.0392
18 | Y[Aib]EGTFTSDYSILLDKIAQ[Aib]AFIEYLIK([AEEA-AEEA-γGlu-C20 diacid])GGPSSGAPPPS-NH2 (N-terminus assumed; SMILES CC[C@H](C)[C@H](NC(=O)[C@H](CCCCN)NC(=O)[C@H](CC(=O)O)NC(=O)[C@H](CC(C)C)NC(=O)[C@H](CC(C)C)NC(=O)[C@@H](NC(=O)[C@H](CO)NC(=O)[C@H](Cc1ccc(O)cc1)NC(=O)[C@H](CC(=O)O)NC(=O)[C@H](CO)NC(=O)[C@@H](NC(=O)[C@H](Cc1ccccc1)NC(=O)[C@@H](NC(=O)CNC(=O)[C@H](CCC(=O)O)NC(=O)C(C)(C)NC(=O)[C@@H](N)Cc1ccc(O)cc1)[C@@H](C)O)[C@@H](C)O)[C@@H](C)CC)C(=O)N[C@@H](C)C(=O)N[C@@H](CCC(N)=O)C(=O)NC(C)(C)C(=O)N[C@@H](C)C(=O)N[C@@H](Cc1ccccc1)C(=O)N[C@H](C(=O)N[C@@H](CCC(=O)O)C(=O)N[C@@H](Cc1ccc(O)cc1)C(=O)N[C@@H](CC(C)C)C(=O)N[C@H](C(=O)N[C@@H](CCCCNC(=O)COCCOCCNC(=O)COCCOCCNC(=O)CC[C@H](NC(=O)CCCCCCCCCCCCCCCCCCC(=O)O)C(=O)O)C(=O)NCC(=O)NCC(=O)N1CCC[C@H]1C(=O)N[C@@H](CO)C(=O)N[C@@H](CO)C(=O)NCC(=O)N[C@@H](C)C(=O)N1CCC[C@H]1C(=O)N1CCC[C@H]1C(=O)N1CCC[C@H]1C(=O)N[C@@H](CO)C(N)=O)[C@@H](C)CC)[C@@H](C)CC) [Peptide 37] | 0.0533
19 | Y[Aib]EGTFTSDYSILLDKIAQ[Aib]AFIEYLIEGGPK([AEEA-AEEA-γGlu-C20 diacid])SGAPPPS-NH2 (N-terminus assumed; SMILES CC[C@H](C)[C@H](NC(=O)[C@H](CCCCN)NC(=O)[C@H](CC(=O)O)NC(=O)[C@H](CC(C)C)NC(=O)[C@H](CC(C)C)NC(=O)[C@@H](NC(=O)[C@H](CO)NC(=O)[C@H](Cc1ccc(O)cc1)NC(=O)[C@H](CC(=O)O)NC(=O)[C@H](CO)NC(=O)[C@@H](NC(=O)[C@H](Cc1ccccc1)NC(=O)[C@@H](NC(=O)CNC(=O)[C@H](CCC(=O)O)NC(=O)C(C)(C)NC(=O)[C@@H](N)Cc1ccc(O)cc1)[C@@H](C)O)[C@@H](C)O)[C@@H](C)CC)C(=O)N[C@@H](C)C(=O)N[C@@H](CCC(N)=O)C(=O)NC(C)(C)C(=O)N[C@@H](C)C(=O)N[C@@H](Cc1ccccc1)C(=O)N[C@H](C(=O)N[C@@H](CCC(=O)O)C(=O)N[C@@H](Cc1ccc(O)cc1)C(=O)N[C@@H](CC(C)C)C(=O)N[C@H](C(=O)N[C@@H](CCC(=O)O)C(=O)NCC(=O)NCC(=O)N1CCC[C@H]1C(=O)N[C@@H](CCCCNC(=O)COCCOCCNC(=O)COCCOCCNC(=O)CC[C@H](NC(=O)CCCCCCCCCCCCCCCCCCC(=O)O)C(=O)O)C(=O)N[C@@H](CO)C(=O)NCC(=O)N[C@@H](C)C(=O)N1CCC[C@H]1C(=O)N1CCC[C@H]1C(=O)N1CCC[C@H]1C(=O)N[C@@H](CO)C(N)=O)[C@@H](C)CC)[C@@H](C)CC) [Peptide 41] | 0.0637
